Measured values published in patent US12721801B2, “Compositions and methods relating to stimulation of hyaluronic acid” (Alastin Skincare, Inc., priority 2020, dated 2026).

Columns and labels:
[1] = system: human dermal fibroblasts; conditions: cited from earlier work
[2] = system: human fibroblast cells; assay: HA production assessment, SDS-PAGE of fibroblast supernatants; type: cell-based; conditions: Experiment 2, primary adult human dermal fibroblasts, 72 hours, octapeptide 100 ug/mL, SymDecanox 250 ug/mL, others 500 ug/mL, FIG. 6
Description: In a second experiment, HA production was also assessed with the test compounds below. Briefly, primary adult human dermal fibroblast cells were cultured until near confluent in 6 well plates. The cells were treated with the compounds and concentrations indicated to the right. After 72 hours, 100 μL of media were collected from each treatment condition and was concentrated in a SpeedVac concentrator to a final volume of ~10 uL.
All 10 μL of the supernatants were loaded onto an acrylamide gel (NuPAGE 4-12% Bis-Tris Protein Gel) and run at 200V for 3 hours. The gel was stained to detect the presence of HA. Data is seen in FIG. 6. […] Lane 11 is the negative control, representing the untreated cells. This band represents the cells constitutive level of HA. Treating the cells with all the indicated compounds (lanes 1-10) produced an increased level of high molecular weight HA. […]

B1: Lactoferrin: a transferrin; wound healing attributes, increases HA secretion (protein, UniProt P02788 20-710, looked up)
Lactotransferrin: GRRRSVQWCAVSQPEATKCFQWQRNMRKVRGPPVSCIKRDSPIQCIQAIAENRADAVTLDGGFIYEAGLAPYKLRPVAAEVYGTERQPRTHYYAVAVVKKGGSFQLNELQGLKSCHTGLRRTAGWNVPIGTLRPFLNWTGPPEPIEAAVARFFSASCVPGADKGQFPNLCRLCAGTGENKCAFSSQEPYFSYSGAFKCLRDGAGDVAFIRESTVFEDLSDEAERDEYELLCPDNTRKPVDKFKDCHLARVPSHAVVARSVNGKEDAIWNLLRQAQEKFGKDKSPKFQLFGSPSGQKDLLFKDSAIGFSRVPPRIDSGLYLGSGYFTAIQNLRKSEEEVAARRARVVWCAVGEQELRKCNQWSGLSEGSVTCSSASTTEDCIALVLKGEADAMSLDGGYVYTAGKCGLVPVLAENYKSQQSSDPDPNCVDRPVEGYLAVAVVRRSDTSLTWNSVKGKKSCHTAVDRTAGWNIPMGLLFNQTGSCKFDEYFSQSCAPGSDPRSNLCALCIGDEQGENKCVPNSNERYYGYTGAFRCLAENAGDVAFVKDVTVLQNTDGNNNEAWAKDLKLADFALLCLDGKRKPVTEARSCHLAMAPNHAVVSRMDKVERLKQVLLHQQAKFGRNGSDCPDKFCLFQSETKNLLFNDNTECLARLHGKTTYEKYLGPQYVAGITNLKKCSTSPLLEACEFLRK
[1]; literature (Saito et al. 2011)
  HA secretion: increases HA secretion
[1]; literature (Saito et al. 2011; Takayama 2012)
  Proliferation of fibroblasts: promotes proliferation of fibroblasts
[2]
  Level of high molecular weight HA (band on gel): secrete high molecular weight HA
